Laboratory results from patent US20190315859A1 (EUREKA THERAPEUTICS, published 2019).

Experiments:
[1] = molecular target: T1, Recombinant human CD19 ECD-Fc fusion protein (human, UniProt P15391 20-291, biotinylated for the Octet assay (sites not given); not biotinylated when coated for ELISA); test: ELISA, plate coated with human CD19 ECD-Fc, phage clone detected with HRP-conjugated anti-M13 antibody, OD450
T1 construct: domain: Fc of human IgG1 lacking the CH1 domain and including the hinge region; also called human CD19-Fc; hCD19 ECD-Fc; not shown: Fc of human IgG1 lacking the CH1 domain and including the hinge region
T1 sequence: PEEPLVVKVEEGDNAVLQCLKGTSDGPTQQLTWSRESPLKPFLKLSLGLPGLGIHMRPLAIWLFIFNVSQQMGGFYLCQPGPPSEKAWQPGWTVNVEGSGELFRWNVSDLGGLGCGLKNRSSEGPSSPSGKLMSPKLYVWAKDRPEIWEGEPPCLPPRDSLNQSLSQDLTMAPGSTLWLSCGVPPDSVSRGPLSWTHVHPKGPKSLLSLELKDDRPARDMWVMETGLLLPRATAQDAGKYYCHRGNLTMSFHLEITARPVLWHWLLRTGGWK
Protocol: Individual phage clones from enriched phage display panning pools were incubated in the coated plates. Binding of the phage clones was detected by HRP-conjugated anti-M13 antibodies and developed using HRP substrate. The absorbance was read at 450 nm.

[2] = molecular target: T2, human CD19 expressed on the cell surface (native format) (human, UniProt P15391 20-488); test: flow cytometry, phage clone then mouse anti-M13 antibody then R-PE anti-mouse IgG; CD19+ Raji and 3T3-CD19, CD19- Jurkat and 3T3; MFI
T2 construct: Endogenous on Raji, Jeko-1 and primary human B cells (CD20+CD3- gate); transduced into NIH/3T3 (3T3-CD19); also called hCD19; cell-surface human CD19
T2 sequence: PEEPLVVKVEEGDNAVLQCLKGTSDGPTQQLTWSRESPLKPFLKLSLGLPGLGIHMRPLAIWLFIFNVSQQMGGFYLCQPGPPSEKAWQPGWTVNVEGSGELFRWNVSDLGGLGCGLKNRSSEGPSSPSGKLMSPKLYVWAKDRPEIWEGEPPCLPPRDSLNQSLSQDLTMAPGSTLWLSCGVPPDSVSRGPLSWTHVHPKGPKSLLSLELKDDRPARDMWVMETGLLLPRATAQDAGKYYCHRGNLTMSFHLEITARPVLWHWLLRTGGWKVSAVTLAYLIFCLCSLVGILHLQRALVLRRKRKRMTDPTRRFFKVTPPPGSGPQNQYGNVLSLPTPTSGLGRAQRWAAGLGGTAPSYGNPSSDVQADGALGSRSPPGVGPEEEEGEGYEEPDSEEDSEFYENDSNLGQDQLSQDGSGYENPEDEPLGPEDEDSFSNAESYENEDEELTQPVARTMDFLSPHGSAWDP
Protocol: ELISA-positive phage clones were then tested for cell-surface human CD19 binding by flow cytometry using human CD19-positive Raji and 3T3-hCD19 cell lines, and human CD19 negative Jurkat and 3T3 cell lines (FIG. 1B). Cells were first stained with purified scFv phage clones, followed by mixing with a mouse anti-M13 monoclonal antibody, and finally a R-PE conjugated horse anti-mouse IgG (Vector Labs). Each step of staining was performed between 30-60 minutes on ice and cells were washed twice between stainings. One unique clone, 37, was identified to specifically bound human CD19⁺ Raji and 3T3-CD19 cells and not hCD19⁻ Jurkat and 3T3 (FIG. 1B).

B1: 23 (scFv)
scFv (VL-linker-VH), shown on M13 phage: QSVLTQPPSVSAAPGQKVTISCSGSSSNIGNNYVSWYRQLPGTAPKLLIYENNKRPSGIPDRFSGSKSGTSATLGITGLQTGDEADYYCGTWDSSLRAGVFGTGTKVTVLGSRGGGGSGGGGSGGGGSLEMAQVQLVESGGGLVQPGGSLRLSCAASGFTFSSYAMSWVRQAPGKGLEWVSGISASGGSTYYADSVKGRFTISRDNSKNTLYLQMNSLRAEDTAVYYCARYYLSQIDSWGQGTLVTVSS
notes: hit from protein screening (ELISA); also called clone 23; anti-human CD19 scFv phage clone 23
**Q.** Does B1 bind [1]?
**A.** binds

B2: 9 (scFv)
scFv (VL-linker-VH), shown on M13 phage: QTVVTQEPSVSAAPGQKVTISCSGSSSNIGNNYVSWYQQLPGTAPKLLIYDNNKRPSGIPDRFSGSKSGTSATLGITGLQTGDEADYYCGTWDSSLSAGVFGTGTKLTVLGSRGGGGSGGGGSGGGGSLEMAQVQLVETGGGLVQPGGSLRLSCAASGFTFSSYAMSWVRQAPGKGLEWVSAISGSGGSTYYADSVKGRFTISRDNSKNTLYLQMNSLRAEDTAVYYCARYYYSRLDYWGQGTLVTVSS
notes: hit from protein screening (ELISA); also called clone 9; anti-human CD19 scFv phage clone 9
**Q.** Does B2 bind [1]?
**A.** binds

B3: 40 (scFv)
scFv (VL-linker-VH), shown on M13 phage: EIVMTQSPLSLSVTPGEPASISCRSSQSLLDSNGFNSLDWYLQKPGQSPQLLIHLGSDRASGVPDRFSGSGSGTDFTLKISRVEAEDVGIYYCMQSLQIPTFGQGTKVEIKRSRGGGGSGGGGSGGGGSLEMAQMQLVQSGAEVKKAGSSVKVSCETSGGTFSSSSVNWVRQAPGQGLEWMGGIIPIVGTPNYAQKFQDRVTITAVESTFTAYMELSGLRSEDTAVYYCARGGYRDYMDVWGRGTTVTVSS
notes: hit from protein screening (ELISA); also called clone 40; anti-human CD19 scFv phage clone 40
**Q.** Does B3 bind [2]?
**A.** no binding

B4: 43 (scFv)
scFv (VL-linker-VH), shown on M13 phage: SYELTQPPSASGTPGQRVTISCSGSSSNIGSNYVYWYQQLPGTAPKLLIYRNNQRPSGVPDRFSGSKSGTSASLAISGLRSEDEADYYCAAWDDSLSGYVFGTGTKVTVLGSRGGGGSGGGGSGGGGSLEMAEVQLVESGGGLIQPGGSLRLSCAASGFTVSSNYMSWVRQAPGKGLEWVSVIYSGGSTYYADSVKGRFTISRDNSKNTLYLQMNSLRAEDTAVYYCARGGFGAEFDYWGQGTLVTVSS
notes: hit from protein screening (ELISA); also called clone 43; anti-human CD19 scFv phage clone 43
**Q.** Does B4 bind [1]?
**A.** binds

B5: 54 (scFv)
scFv (VL-linker-VH), shown on M13 phage: SYVLTQPPSVSVSPGQTASITCSGDKLGDKYASWYQQKPGQSPVLVIYQDNKRPSGIPERFSGSNSGNTATLTISGTQAMDEADYYCQAWDSSTEDVFGPGTKVTVLGSRGGGGSGGGGSGGGGSLEMAEVQLVESGGGLIQPGGSLRLSCAASGFTVSSNYMSWVRQAPGKGLEWVSVIYSGGSTYYADSVKGRFTISRDNSKNTLYLQMNSLRAEDTAVYYCARGGISDDYYGSGSYDNWGQGTLVTVSS
notes: hit from protein screening (ELISA); also called clone 54; anti-human CD19 scFv phage clone 54
**Q.** Does B5 bind [1]?
**A.** binds

B6: 36 (scFv)
scFv (VL-linker-VH), shown on M13 phage: DIQLTQSPSSLSAYVGDRVTITCRASQGITNSLAWYQQKPGKAPKLLLHAASRLESGVPSRFSGSGFGTDFTLTISSLQPEDFAVYYCQHYLGTPYSFGQGTKVEIKRSRGGGGSGGGGSGGGGSLEMAEVQLVESGGGLVQPGGSLRLSCAASGFTVSSNYMSWVRQAPGKGLEWVSAISGSGGSTYYADSVKGRFTISRDNSKNTLYLQMNSLRAEDTAVYYCARMNIDYWGQGTLVTVSS
notes: hit from protein screening (ELISA); also called clone 36; anti-human CD19 scFv phage clone 36
**Q.** Does B6 bind [1]?
**A.** binds
